We go through one substance from patent publication US20240417469A1.

The target of test [1] is recombinant CD3D&E protein (human CD3-his tag) (human) (UniProt P04234). The test can be described thus: SPR Biacore, Ab captured on Protein A.
Test [2] deals with human CD3 on cells (human PBMC; Jurkat TCR/CD3 NFAT reporter cells) (human) (UniProt P07766). In words: FACS on human PBMC, PE anti-human IgG Fc secondary, geometric mean fluorescence.
Sequence of human CD3 on cells (human PBMC; Jurkat TCR/CD3 NFAT reporter cells) (human) (P07766 23-207, chain 1 of 3): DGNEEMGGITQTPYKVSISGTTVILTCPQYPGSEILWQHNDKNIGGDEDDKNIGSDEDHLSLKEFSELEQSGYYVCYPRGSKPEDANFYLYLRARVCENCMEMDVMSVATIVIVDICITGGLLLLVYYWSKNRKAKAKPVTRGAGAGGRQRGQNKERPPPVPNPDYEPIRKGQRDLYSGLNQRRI
Sequence of human CD3 on cells (human PBMC; Jurkat TCR/CD3 NFAT reporter cells) (human) (P04234 22-171, chain 2 of 3, further chain): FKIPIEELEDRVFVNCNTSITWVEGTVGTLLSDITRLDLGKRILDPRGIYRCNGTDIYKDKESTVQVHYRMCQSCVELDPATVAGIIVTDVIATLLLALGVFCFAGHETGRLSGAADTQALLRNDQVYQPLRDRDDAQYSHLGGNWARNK
Sequence of human CD3 on cells (human PBMC; Jurkat TCR/CD3 NFAT reporter cells) (human) (P09693 23-182, chain 3 of 3, further chain): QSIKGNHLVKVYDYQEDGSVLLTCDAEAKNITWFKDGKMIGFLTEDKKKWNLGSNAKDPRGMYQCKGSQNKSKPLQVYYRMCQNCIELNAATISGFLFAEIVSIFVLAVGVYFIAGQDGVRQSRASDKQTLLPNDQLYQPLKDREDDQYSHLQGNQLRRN

Sequence of recombinant CD3D&E protein (human CD3-his tag) (human) (P04234 22-105 limits assumed, chain 1 of 2): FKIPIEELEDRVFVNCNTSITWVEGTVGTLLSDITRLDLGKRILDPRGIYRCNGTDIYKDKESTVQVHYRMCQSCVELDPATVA
Sequence of recombinant CD3D&E protein (human CD3-his tag) (human) (P07766 23-126 limits assumed, chain 2 of 2, further chain): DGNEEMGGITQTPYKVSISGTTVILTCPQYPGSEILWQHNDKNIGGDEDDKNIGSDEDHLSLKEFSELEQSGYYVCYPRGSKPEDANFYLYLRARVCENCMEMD

Consider OKT3 (antibody), for which, in test [1], the Kd is 3.7 nM, the koff stood at 0.00272 s⁻¹ and the kon came to 735000 M⁻¹ s⁻¹. The same substance gave an EC50 (read off the curve) in test [2] of 0.04 nM.
